{"source": "patent US11708423B2", "about": "“Chimeric engulfment receptor molecules and methods of use” (CERO THERAPEUTICS, INC., priority 2017, dated 2023)", "key": {"[1]": {"system": "SCC152 cells", "experiment": "Phagocytic activity of tandem expression cassette transduced CD8+ T cells", "type": "cell-based, human", "method": "Phagocytic activity of tandem expression cassette transduced CD8+ T cells was detected by co-culturing tandem expression cassette transduced CD8+ T cells with SCC152 cells for 6 hours at a 1:1 ratio. Phagocytic events were visualized and quantified using KEYENCE BZ-X710 fluorescence microscope, 20X objective and hybrid capture software."}, "[2]": {"experiment": "Engulfment of phosphatidylserine coated latex beads", "type": "cell-based"}, "[3]": {"system": "SCC152 cells", "experiment": "Cytokine response of tandem cassette transduced CD8+ T cells", "type": "cell-based, human", "conditions": "CD8+ T cells co-cultured with SCC152 cells"}, "[4]": {"system": "SCC152 cells", "protocol": "Peripheral blood was collected by venipuncture from a human donor, and human peripheral blood mononuclear cells (PBMCs) were isolated by density gradient centrifugation using lymphocyte separation media. CD8+ T cells were enriched from PBMCs using a commercially available isolation kit and activated with anti-CD3 and anti-CD28 in Complete Cell Growth Media. 50 μl of viral vector expressing the CER-HPV16 E7 TCR combination were diluted in 0.5 ml Complete Cell Growth Media and added to the CD8+ T cells. The transduced T cells were then centrifuged at 270×g rpm for 1 hour in a 32° C. pre-warmed centrifuge. The T cells were incubated for 24 hours at 37° C. T cells were expanded for another 72 hours in Complete Cell Growth Media, de-beaded, and allowed to expand x 5 days prior to being utilized for functional assays.\nCytotoxic activity of tandem expression cassette transduced CD8+ T cells was detected using a caspase 3/7 apoptosis reagent (IncuCyte®) that couples the activated caspase 3/7 recognition motif with a red reagent that fluoresces upon cleavage. The fluorescent signal was measured using fluorescent microscopy. […] The caspase 3/7 apoptosis reagent was added to the co-culture, and cytotoxic activity was measured over time by measuring fluorescence (see, FIG. 40). […]"}}}
{"molecule": "CER21−HPV16 E7 TCR: tandem expression cassette: CER21, T2A peptide, HPV16 E7 specific TCR; SEQ ID NO:166 (protein, CER21_T2A_HPV16_E7_TCR tandem cassette) MSKGLLLLWLVTELWWLYLTPAASEDTIIGFLGQPVTLPCHYLSWSQSRNSMCWGKGSCPNSKCNAELLRTDGTRIISRKSTKYTLLGKVQFGEVSLTISNTNRGDSGVYCCRIEVPGWFNDVKKNVRLELRRATTTKKPTTTTRPTTTPYVTTTTPELLPTTVMTTSVLPTTTPPQTLATTAFSTAVTTCPSTTPGSFSQETTKGSAFTTESETLPASNHSQRSMMTISTDIAVLRPTGSNPGILPSTSQLTTQKTTLTTSESLQKTTKSHQINSRQTILIIACCVGFVLMVLLFLAFLHHLFYWDVWFIYNVCLAKVKGYRSLSTSQTFYDAYISYDTKDASVTDWVINELRYHLEESRDKNVLLCLEERDWDPGLAIIDNLMQSINQSKKTVFVLTKKYAKSWNFKTAFYLALQRLMDENMDVIIFILLEPVLQHSQYLRLRQRICKSSILQWPDNPKAEGLFWQTLRNVVLTENDSRYNNMYVDSIKQYLEGGGEGRGSLLTCGDVEENPGPMAPGLLCWALLCLLGAGLVDAGVTQSPTHLIKTRGQQVTLRCSPKSGHDTVSWYQQALGQGPQFIFQYYEEEERQRGNFPDRFSGHQFPNYSSELNVNALLLGDSALYLCASSLGWRGGRYNEQFFGPGTRLTVLEDLRNVTPPKVSLFEPSKAEIANKQKATLVCLARGFFPDHVELSWWVNGKEVHSGVCTDPQAYKESNYSYCLSSRLRVSATFWHNPRNHFRCQVQFHGLSEEDKWPEGSPKPVTQNISAEAWGRADCGITSASYQQGVLSATILYEILLGKATLYAVLVSTLVVMAMVKRKNSRAKRSGSGATNFSLLKQAGDVEENPGPMWGVFLLYVSMKMGGTTGQNIDQPTEMTATEGAIVQINCTYQTSGFNGLFWYQQHAGEAPTFLSYNVLDGLEEKGRFSSFLSRSKGYSYLLLKELQMKDSASYLCASVDGNNRLAFGKGNQVVVIPNIQNPEPAVYQLKDPRSQDSTLCLFTDFDSQINVPKTMESGTFITDKCVLDMKAMDSKSNGAIAWSNQTSFTCQDIFKETNATYPSSDVPCDATLTEKSFETDMNLNFQNLLVIVLRILLLKVAGFNLLMTLRLWSS", "values": [{"measurement": "phagocytosis of SCC152 cells", "setting": "[1]; CD8+ T cells, 6 hours, 1:1 ratio", "value": "capable of phagocytosing SCC152 cells"}, {"measurement": "dependence of engulfment of SCC152 cells on Racl", "setting": "[1]; Racl inhibitor NSC23766 (50 μM), data not shown", "value": "Racl-dependent manner"}, {"measurement": "incubation time after which phosphatidylserine coated beads could be visualized inside the T cells", "setting": "[2]", "value": "about 30 minutes"}, {"measurement": "engulfment of phosphatidylserine coated beads", "setting": "[2]; CD8+ T cells, data not shown", "value": "engulfed streptavidin coated latex beads"}, {"measurement": "antigen specific effector function (IFNγ response)", "setting": "[3]", "value": "exhibit antigen specific effector function as measured by IFNγ response"}, {"measurement": "cytotoxic activity toward SCC152 cells (caspase 3/7)", "setting": "[4]; CD8+ T cells, 1:1 ratio", "value": "exhibit cytotoxic activity toward SCC152 cells"}, {"measurement": "cytotoxic response relative to CD8+ T cells comprising HPV16 E7 TCR alone", "setting": "[4]; by 6 hours", "value": "exponentially higher"}]}
